Results from patent publication EP1950300A2 (Genentech, Inc., dated 2008).
Changes are numbered by the printed parent chain. In names and notes the source's numbering stands.

B1: Y0241-6 (Fab, V domains shown)
VH: EVQLVESGGGLVQPGGSLRLSCAASGYDYTNYGMNWVRQAPGKGLEWVGWINTYTGEPTYAADFKRRFTFSLDTSKSTAYLQMNSLRAEDTAVYYCAKYPHYYGSSHWYFDVWGQGTL
VL: DIQLTQSPSSLSASVGDRVTITCRANEQLSNYLNWYQQKPGKAPKVLIYFTSSLHSGVPSRFSGSGSGTDFTLTISSLQPEDFATYYCQQYSTVPWTFGQGTKVEIKR
notes: Clone from library YC-86 built on pY0192, expressed as Fab
B2: Y0241-7 (Fab, V domains shown)
VH: B1 VH with Y29W
VL: B1 VL
notes: Clone from library YC-86 built on pY0192, expressed as Fab; This is not written as a substitution
B3: Y0242-1 (Fab, V domains shown)
VH: B1 VH with D28T, Y29F, Y54W
VL: B1 VL
notes: Clone from library YC-90; Expressed as Fab
B4: Y0239-19 (Fab, V domains shown)
VH: EVQLVESGGGLVQPGGSLRLSCAASGYTFTNYGMNWVRQAPGKGLEWVGWINTYTGEPTYAADFKRRFTFSLDTSKSTAYLQMNSLRAEDTAVYYCAKYPHYYVNERKSHWYFDVWGQGTL
VL: B1 VL
notes: Expressed as Fab; also called insertion variant Y0239-19; VNERK motif variant
B5: Y0239-2 (Fab, V domains shown)
VH: B4 VH with V104K, E106D, R107K, K108S
VL: B1 VL
notes: Clone from library YC-95 on pY0192; Expressed as Fab; The limits of the flanking pieces are my reading
B6: Y0239-12 (Fab, V domains shown)
VH: B4 VH with V104A, N105H, R107K
VL: B1 VL
notes: Clone from library YC-98 on pY0192; Expressed as Fab; The limits of the flanking pieces are my reading
B7: Y0240-1 (Fab, V domains shown)
VH: B4 VH with V104L, N105T, E106D, R107H
VL: B1 VL
notes: Clone from library YC-98 (G104 and S105 replaced by a random peptide) on pY0192; Expressed as Fab; The limits of the flanking pieces are my reading
B8: Y0261-6 (Fab, V domains shown)
VH: B4 VH with V104L, N105K, E106D, R107K
VL: B1 VL
notes: as for B6
B9: Y0313-2 (Fab, V domains shown)
VH: B4 VH with T28D, N31H
VL: B1 VL
notes: Combines the CDR H3 insertion of Y0239-19 with T28D/N31H; Prepared as Fab; also called CDR combination variant Y0313-2; Insert-Fab Y0313-2
B10: Y0239-8 (Fab, V domains shown)
VH: EVQLVESGGGLVQPGGSLRLSCAASGYTFTNYGMNWVRQAPGKGLEWVGWINTYTGEPTYAADFKRRFTFSLDTSKSTAYLQMNSLRAEDTAVYYCAKYPHYYLRDGRSSHWYFDVWGQGTL
VL: B1 VL
notes: Clone from library YC-95 (G104 replaced by a random peptide) on pY0192; Expressed as Fab; The limits of the flanking pieces are my reading
B11: Y0239-9 (Fab, V domains shown)
VH: EVQLVESGGGLVQPGGSLRLSCAASGYTFTNYGMNWVRQAPGKGLEWVGWINTYTGEPTYAADFKRRFTFSLDTSKSTAYLQMNSLRAEDTAVYYCAKYPHYYLGESSHWYFDVWGQGTL
VL: B1 VL
notes: as for B5

biological target: T1, VEGF(8-109) (UniProt P15692 214-315); assay: SPR (BIACORE-2000), VEGF(8-109) coupled to the chip, Fab injected, 25 C
T1 construct: range 8-109; Covalently coupled to the BIACORE chip
T1 sequence (looked up): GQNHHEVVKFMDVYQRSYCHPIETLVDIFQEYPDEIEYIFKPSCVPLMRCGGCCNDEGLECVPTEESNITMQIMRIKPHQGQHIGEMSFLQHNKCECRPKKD

B1 and B2 are within 1.5-fold of each other in koff: 0.000129 s⁻¹ for the first, 0.000128 s⁻¹ for the second.

B1 and B2 are within 1.5-fold of each other in kon: 47000 M⁻¹ s⁻¹ for the first, 46000 M⁻¹ s⁻¹ for the second.

biological target: T1, VEGF(8-109); assay: SPR (BIACORE-2000), ratio against Y0192

First: B1
Second: B2
The “Kd(wt)/Kd(mut)” value of the first is higher: 1.1 fold for the first, 1 fold for the second.

First: B3
Second: B4
The “Kd(wt)/Kd(mut)” value of the first is lower: 1.6 fold for the first, 9.7 fold for the second.

Going from B5 to B6, the “Kd(wt)/Kd(mut)” value rises from 0.6 fold to 4.8 fold.

First: B7
Second: B8
The “Kd(wt)/Kd(mut)” value of the first is higher: 5.8 fold for the first, 5 fold for the second.

Compared with B9, B10 is lower in “Kd(wt)/Kd(mut)” value: 8 fold for the first, 5.8 fold for the second.

With B11 the “Kd(wt)/Kd(mut)” value was 6 fold.

biological target: T1, VEGF(8-109); assay: SPR (BIACORE-2000), Kd calculated as koff/kon

B1 and B2 are within 1.5-fold of each other in Kd: 2.7 nM for the first, 3 nM for the second.
